B1: human DEAF-1 MYND domain (residues 501–544) (domain or fragment)
chain: GAMEQSCVNCGREAMSECTGCHKVNYCSTFCQRKDWKDHQHICGQSA
notes: N-terminal insertion of three amino acids GAM; DEAF-1, human, MYND domain, residues 501-544; 15N- or 15N/13C-labelled for NMR; also called short construct; source: E. coli BL21(DE3), purified (Ni-NTA, TEV cleavage, second Ni column, Superdex 75); not shown: poly-histidine tag, N-terminal, cleaved; thioredoxin, N-terminal, cleaved
B2: SMRT corepressor peptide (residues 1111–1120 of SMRT) (peptide)
peptide: SNPPPLISSA
notes: silencing mediator of retinoid and thyroid receptor (SMRT), residues 1111-1120; Unlabelled peptide; also called SMRT peptide
B3: NCoR corepressor peptide (residues 1031–1040 of NCoR) (peptide)
peptide: RPPPPLIPSS
notes: nuclear receptor corepressor (NCoR), residues 1031-1040; Unlabelled peptide; also called NCoR peptide

What was measured:
[1] = target: the molecule itself; assay: AUC; sedimentation velocity, concentration-dependent; continuous sedimentation distribution at 86 µM DEAF-1 MYND; fitted to a self-association model; dimer to monomers
[2] = target: B1; assay: NMR titration; 1 mM 15N-labeled DEAF-1 MYND titrated with unlabeled peptide (SMRT up to 9-fold, NCoR up to 5-fold molar excess); chemical shift perturbations fitted to a binding isotherm; fast exchange; details: both partners purified

| Kd [2] [mM] | Binder | Kd [1] [mM] | stoichiometry N [1] |
| --- | --- | --- | --- |
| – | B1 | 0.0005 ± 0.0001 | 2 |
| 5.3 ± 0.54 | B2 | – | – |
| 3.08 ± 0.12 | B3 | – | – |
